The experiment concerns the target S377-588-Fc (residues 377-588 of MERS-CoV spike protein fused with human IgG Fc) (MERS-CoV) (UniProt K9N5Q8). In words: SDS-PAGE of non-boiled against boiled sample.

For orientation: stoichiometry N means the number of molecules, sites or subunits per partner or assembly.

With “S377-588-Fc (residues 377-588 of MERS-CoV spike protein fused with human IgG Fc) (from UniProt K9N5Q8 377-588) (Fc fusion)”, the stoichiometry N came out at 2.

Values taken from paper PMC3852489.
